From patent publication US20170189519A1 come the findings set out here.

The target of experiment [1] is H1-mini2-cluster1+5+6-GCN4 without leader sequence and with FLAG-thrombin-foldon-HIS. Kind of experiment: ELISA, coated CR6261, HEK293F culture medium; the reference itself.
The target is the same in experiment [2]. Kind of experiment: ELISA, coated CR6261, HEK293F culture medium; average of the parental.
The target is the same in experiment [3]. The experiment in a line: ELISA, coated CR6261, P. pastoris culture medium; the reference itself.
Experiment [4] shares this target. Kind of experiment: ELISA, coated CR6261, P. pastoris culture medium; average of the parental.

For the substance CR6261 (antibody), the fold increase of ratio over parental SEQ ID NO: 6 in experiment [1] and in experiment [3] was 1 fold throughout. Also, the values for the CR6261 binding signal in experiment [2] and in experiment [4] were 5.66e+06 and 238000, respectively. Moreover, the ratio of CR6261 binding signal to HTRF signal in experiment [2] amounted to 17.4; in experiment [4], 5.94.
